Reference: PMC9635297 (Molecular Biology of the Cell, 2022)

Molecular target: the molecule itself
Assay: SEC

B1: 6xHis-Cdc3 (natural protein)
chain: MSLKEEQVSIKQDPEQEERQHDQFNDVQIKQESQDHDGVDSQYTNGTQNDDSERFEAAESDVKVEPGLGMGITSSQSEKGQVLPDQPEIKFIRRQINGYVGFANLPKQWHRRSIKNGFSFNLLCVGPDGIGKTTLMKTLFNNDDIEANLVKDYEEELANDQEEEEGQGEGHENQSQEQRHKVKIKSYESVIEENGVKLNLNVIDTEGFGDFLNNDQKSWDPIIKEIDSRFDQYLDAENKINRHSINDKRIHACLYFIEPTGHYLKPLDLKFMQSVYEKCNLIPVIAKSDILTDEEILSFKKTIMNQLIQSNIELFKPPIYSNDDAENSHLSERLFSSLPYAVIGSNDIVENYSGNQVRGRSYPWGVIEVDNDNHSDFNLLKNLLIKQFMEELKERTSKILYENYRSSKLAKLGIKQDNSVFKEFDPISKQQEEKTLHEAKLAKLEIEMKTVFQQKVSEKEKKLQKSETELFARHKEMKEKLTKQLKALEDKKKQLELSINSASPNVNHSPVPTKKKGFLR
stoichiometry N: 2
